{"source": "paper PMC9241073", "origin": "cited, not measured here", "key": {"[1]": {"target": "PAK1 (Homo sapiens) (UniProt Q13153)", "sequence (Q13153 2-545)": "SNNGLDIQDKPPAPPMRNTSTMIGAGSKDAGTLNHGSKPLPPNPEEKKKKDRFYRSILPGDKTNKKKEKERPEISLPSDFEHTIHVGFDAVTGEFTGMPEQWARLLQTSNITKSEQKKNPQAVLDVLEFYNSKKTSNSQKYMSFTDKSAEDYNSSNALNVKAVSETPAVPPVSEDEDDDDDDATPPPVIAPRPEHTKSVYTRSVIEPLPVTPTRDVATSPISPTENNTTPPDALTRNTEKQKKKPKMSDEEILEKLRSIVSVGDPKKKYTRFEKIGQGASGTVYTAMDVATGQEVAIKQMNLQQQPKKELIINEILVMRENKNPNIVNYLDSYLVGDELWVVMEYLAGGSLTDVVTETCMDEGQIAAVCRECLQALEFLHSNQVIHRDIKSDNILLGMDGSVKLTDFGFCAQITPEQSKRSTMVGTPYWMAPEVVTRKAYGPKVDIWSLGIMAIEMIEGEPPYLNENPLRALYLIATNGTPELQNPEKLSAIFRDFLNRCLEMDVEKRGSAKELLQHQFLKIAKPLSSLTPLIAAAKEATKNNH"}, "[2]": {"target": "PAK1 (Homo sapiens) (UniProt Q13153)", "remark": "listed apart in the source"}}, "note": "Read-outs that look alike come from different tables or passages of the source."}
{"substance": "CDC42 (from UniProt P60953)", "values": [{"measurement": "Kd", "setting": "[1]", "value": "> 2000", "unit": "nM"}, {"measurement": "Kd", "setting": "[2]", "value": "> 1000", "unit": "nM"}]}
